Laboratory results reported in patent US12466859B2, “Desmoglein 2 (DSG2) binding proteins and uses therefor” (UNIVERSITY OF WASHINGTON THROUGH ITS CENTER FOR …, priority 2013, dated 2025).
“Also recorded” adds a separate entry of the source.

T1: soluble recombinant DSG2 (Homo sapiens, UniProt Q14126)
T1 construct: Western blot using soluble recombinant DSG2 as a probe; purchased Leinco Technologies, Inc. (St. Louis, MO)
T1 sequence (Q14126 50-609 limits assumed): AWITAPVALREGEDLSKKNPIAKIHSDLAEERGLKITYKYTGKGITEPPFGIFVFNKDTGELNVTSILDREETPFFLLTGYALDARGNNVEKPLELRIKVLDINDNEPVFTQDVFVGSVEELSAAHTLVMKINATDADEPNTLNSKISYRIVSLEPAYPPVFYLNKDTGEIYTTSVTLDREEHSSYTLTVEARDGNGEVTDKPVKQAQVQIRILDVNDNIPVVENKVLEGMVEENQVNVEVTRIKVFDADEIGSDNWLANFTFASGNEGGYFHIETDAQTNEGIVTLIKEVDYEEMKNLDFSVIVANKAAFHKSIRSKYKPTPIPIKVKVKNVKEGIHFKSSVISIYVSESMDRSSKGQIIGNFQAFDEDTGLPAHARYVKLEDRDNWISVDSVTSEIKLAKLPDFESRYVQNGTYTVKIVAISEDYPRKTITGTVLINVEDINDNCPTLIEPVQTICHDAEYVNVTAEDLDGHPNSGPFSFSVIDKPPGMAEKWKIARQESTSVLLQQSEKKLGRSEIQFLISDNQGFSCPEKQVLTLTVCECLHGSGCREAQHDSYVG

B1: D261N (protein)
chain: MKVSALKEKVSALKEKVSALKEKVSALKEKVSALKEGSGGGSGGGSGGGSNSIALKNNTLWTGPKPEANCIIEYGKQNPDSKLTLILVKNGGIVNGYVTLMGASDYVNTLFKNKNVSINVELYFDATGHILPDSSSLKTDLELKYKQTADFSARGFMPSTTAYPFVLPNAGTHNENYIFGQCYYKASNGALFPLEVTVMLNKRLPDSRTSYVMTFLWSLNAGLAPETTQATLITSPFTFSYIREDD
B2: JO-4 (protein)
chain: MKVSALKEKVSALKEKVSALKEKVSALKEKVSALKEGSGGGSGGGSGGGSNSIALKNNTLWTGPKPEANCIIEYGKQNPDSKLTLILVKNGGIVNGYVTLMGASDYVNTLFKNKNVSINVELYFDATGHILPDSSSLKTDLELKYKQTADFSARGFMPSTTAYPFVLPNAGTHNENFIFGQCYYKASDGALFPLEVTVMLNKRLPDSRTSYVMTFLWSLNAGLAPETTQATLITSPFTFSYIREDD

Columns and labels:
[1] = target: T1, soluble recombinant DSG2; experiment: Western blot of dimeric Ad3 fiber knob mutants with soluble recombinant DSG2 as probe; type: binding; conditions: dimerized knob mutants compared to JO-1
Source text: FIG. 1A-1F. Residues found to be critically involved in binding to DSG2. FIG. 1A) Shown are the amino acid sequences of the Ad3 and Ad14p1 fiber knob. Beta sheets present in the Ad3 knob (PDB accession number 1H7Z_A) and Ad14 knob (PDB: 3F0Y_A) are indicated by lines. Black arrows indicate residues within the Ad3 fiber knob which, when mutated individually, ablate or reduce binding to DSG2. […] FIG. 1B) Schematic structure of dimeric Ad3 fiber knob mutants. The fiber knob domain and one shaft motif was fused through a flexible linker to a homodimerizing K-coil domain (41). The proteins are self-dimerizing and can be purified by His-Ni-NTA affinity chromatography. FIG. 1C-FIG. 1F) Analysis of binding of dimeric Ad3 fiber knob mutants to soluble DSG2. FIG. 1C and FIG. 1D) Coomassie staining. 10 μg of purified Ad3 fiber knob (unboiled) were loaded per lane. Trimeric forms of the fiber knobs are indicated by an arrow. The gel contained SDS and the loading buffer containing DTT, which caused the disassembly of dimers of trimeric fiber knobs as previously reported (41). FIG. 1E and FIG. 1F): Western blot using soluble recombinant DSG2 as a probe, followed by anti-DSG2-mAb and anti-mouse IgG-HRP. For comparison, JO-1 (0.5 μg/lane) is shown. The Western blots were scanned and signals were quantified.
Western Blot: Mini-PROTEAN precast gels (BIO-RAD, Hercules, CA) with 4-15% gradient polyacrylamide were used. A total of 1 μg protein mixed with 2× loading buffer (10 mM Tris-HCl, pH6.8, 200 mM DTT, 4% SDS, 20% glycerol, 0.2% bromophenol blue) was loaded per lane. Samples were either boiled (B) for 5 min or loaded unboiled (UB). The following running buffer was used: 25 mM Tris, pH8.3, 0.192 M glycine, 0.1% SDS. After electrophoresis, proteins were transferred to nitrocellulose and incubated with recombinant human DSG2 protein and anti-DSG2 antibodies as described previously (42). The Western blots were scanned and quantified using the ImageJ 1.32 software (National Institutes of Health, Bethesda, MD). JO-1 band intensity was set as 100%. […]

[2] = tested on: TNBC MDA-MB-231 tumors; experiment: Enhancement of nab-paclitaxel/cetuximab therapy in orthotopic TNBC MDA-MB-231 tumors; type: in vivo, CB17 SCID-beige mice; conditions: 2 mg/kg i.v. 1 hour before cetuximab 10 mg/kg i.p. and nab-paclitaxel 5 mg/kg i.v., weekly
Description: FIG. 10A-10C. Combination of affinity-enhanced JO-1 versions with chemotherapy. FIG. 10A) Enhancement of irinotecan (I) therapy. The experimental setting was the same as in FIG. 5B. […] N=5. […] Mammary fat pad tumors were established from primary ovarian cancer ovc316 cells. Treatment was started when tumors reached a volume of 100 mm^3. Mice were injected intravenously with 2 mg/kg JO-1 or with 0.5 mg/kg JO-4, followed by an intravenous injection of PEGylated liposomal doxorubicin (PLD) (1 mg/kg) one hour later. Treatment was repeated weekly. […] A total of 4×10^6 TNBC MDA-MB-231 cells were injected into the mammary fat pad of CB17 SCID-beige mice. JO-4 (2 mg/kg) was intravenously injected 1 hour before the application of cetuximab (C) (10 mg/kg, i.p.) and nab-paclitaxel (nab-P) (5 mg/kg, i.v.). Treatment was given weekly. N=10 P<0.01 at day 25 for nab-P+C vs JO-4+nab-P+C.
A549, MDA-MB-231, and ovc316 xenograft tumors were established by injection of the corresponding tumor cells into the mammary fat pad (1:1 with Matrigel) of CB17 mice. TC1-DSG2 tumors were established by subcutaneous injection of TC1-DSG2 cells into DSG2 transgenic mice. […] Tumor volumes were measured three times a week. […]

Molecule | DSG2 binding in Western blot, in words [1] | Enhancement of nab-paclitaxel/cetuximab therapy [2]
B1 | almost completely ablated | –
B2 | – | significantly increased; also recorded: enhances therapy
